Results reported in the nanobody polyreactivity screen of Harvey et al. (2022).

Experiment: yeast display, Sf9 membrane polyspecificity reagent, FACS + sequencing; frameworks hold sequencing errors
Outline: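 Sorting gates, low and high (top ~1%), were placed on anti-HA fluorescence to track expression and on streptavidin fluorescence to track reagent binding. A clone's polyreactivity label is taken from the gate it came out of. The reagent was 10% biotinylated, detergent-solubilized Sf9 membrane, applied for 1 hour at 4 °C to galactose-induced yeast display cells.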

Sequence | polyreactivity (PSR sort gate)
QVQLVESGGGLVQAGGSLRLSCAASGSTFYANAMGWYRQAPGKERELVAAISWRGGSTYYADSVKGRFTISRDNAKNTVYLQMNSLKPEDTAVYYCNRVQRYIRHGDYWGQGTQVTVSS | high polyreactivity
QVQLVESGGGLVQAGGSLRLSCAASGSIFWYYAMGWYRQAPGKERELVATIRKRSGSTYYADSVKGRFTISRDNAKNTVYLQMNSLKPEDTAVYYCAADYTAYGYDYWGQGTQVTVSS | low polyreactivity
QVQLVESGGGLVQAGGSLRLSCAASGFIFVNYMGWYRQAPGKERELVAAISRGGSTNYADSVKGRFTISRDNAKNTVYLQMNSLKPEDTAVYYCAAETWYSGYTYDYWGQGTQVTVSS | low polyreactivity
QVQLVESGGGLVQAGGSLRLRCAAYGSIFDKNSMGWYRQAPGKERELVAAITRSGRSTYYADSVKGRFTISRDNAKNTVYLQMNSLKPEDTALYYCAADVWPRWGLYYWGQGTQVTVTS | high polyreactivity
QVQLVESGGGLVQAGGSLRLSCAASGRTFAYYAMGWYKQAPGKERELVAAISWSGGSTYYADSVKGRFTISRDNAKYTVYLQMNSLKPEDTAVYYCNTLGGTEYGYWGQGTQVTVSS | high polyreactivity
QVHLVESGGGLVQAGGSLLLSCAASGGTFAAYAMGWYRQAPGKERELVAAIDSGGTTKYADSVKGRFTISRDNAKNTVYLQMSCLKPEDTAVYYCAAVYRITFGYHTSRAFDYWGQGTQVTVSS | low polyreactivity
QVQLVESGGGLLQAGGSLRLSSAASGRIFYGNTMGWYRQAPGKERELVAAITWRGGSTYYADSVKGRFTISRDNAKNTVYLQMNSLKPEDTAVYYCAAVSYRGRGYWGQGTQVTVSS | high polyreactivity
QVQLVQTGGGLVQAGGSLRLSCAASGRTFRYYAMGLYRQAPGKEREFVATITYSSGSTYYADSVKGRFTISRDNAKNTVYLQMNSLKPEDTAVYYCNAEGYCNSYGYWGQGTQVTVSS | low polyreactivity
QVQLVESVGGLVQAGGSLRLTCAASGRILGYYAMGWYRQAPWKERELVAAISRAGSTNYADSVKGRFTISRDNAKNTVNLQMNSLKPEHTAVYYCAARQYRRGYNYWGQGTQVTVSS | high polyreactivity
QVQLVESGGGLVQAGGSLRLSCAASGRTFQTNVMGWYRQAPGEERELVAAITLSGGSTNYADSVKGRFSISRDNAMYTVYLQMNSLKPEDTAVYYCNAERRYRHQWTPHYEYDYWGQGTQVTVSS | low polyreactivity
QVQLVESGGGLVQAGGSLRLSCAASGFTFVRNVMGWYRQAPGKERELVAAINTGGTTDYADSVKGRFTISRDNAKNTVYLQMNSLKPEDTAVYYCNADYDSQYHYLLRYDYWGQGTQVTVSS | low polyreactivity
QVQLVESGGGLVQAGASLRLSCAASGSIFGVNAMGWYRQAPGKERELVAAISVSGGRTYYADSVKGRFTISRDNAKNTVYLLMNSLKPEDTAVYYCAATTYIWPYDYWGQGTQVTVSS | low polyreactivity
QVQLVESGGGLVQAGGSLRLSCAASGITFRYYAKGWYRQAPGKERELVAAISRAGSTNYADSVKGRFTISRDNAKNTVYLQMNSLKPVDTAVYSCNARRRSTNAVSYRYITPYDYWGQGTQVTVSS | high polyreactivity
QVQLQESGGGLVQAGGSLRLSCAASGSISAVGAMGWYRQAPGKEREFAASVNWGTNTNYADSVKGRFTISRDNAKTTLYLQMNSLKPEDTAVYYCAADVQITSAGGDYDYWGQGTQVTVSS | low polyreactivity
QVQLVESGVGLVQAGGSLRLSCASSGLTLNQYAIGWYRQAPGKERELVAAITRGGGSTYYADSVKGRFTISRDNAKYTVYLQMNSLKPEDTAVYYCATDNWWPTYHYQGGYYWGQGTQVTVSS | low polyreactivity
QDQHVESGGGLVQAGGSLRLSCAASGFIISYYDMGWYRQPPGHESELVATIDWSGGSTYYADSVKGRFTISRDNAKNTVYLQLNSLKPEDTAVYYCNADWIFGSAPSGRYKYDYWGQGTQVTVSS | low polyreactivity
QVQLVESGGGLVQAGGSLRLSCAASGSIFVYNAMGWYRKATGKERELVAGITFIGGSTYYADSVKGRFTISRDNAKNTVYLQMNSLKPEDTAVYYCNADVAPGIFYGYDSWGQGTQVTVSS | low polyreactivity
